T1: GST-NUB1L, Q9Y5A7-1
T1 chain: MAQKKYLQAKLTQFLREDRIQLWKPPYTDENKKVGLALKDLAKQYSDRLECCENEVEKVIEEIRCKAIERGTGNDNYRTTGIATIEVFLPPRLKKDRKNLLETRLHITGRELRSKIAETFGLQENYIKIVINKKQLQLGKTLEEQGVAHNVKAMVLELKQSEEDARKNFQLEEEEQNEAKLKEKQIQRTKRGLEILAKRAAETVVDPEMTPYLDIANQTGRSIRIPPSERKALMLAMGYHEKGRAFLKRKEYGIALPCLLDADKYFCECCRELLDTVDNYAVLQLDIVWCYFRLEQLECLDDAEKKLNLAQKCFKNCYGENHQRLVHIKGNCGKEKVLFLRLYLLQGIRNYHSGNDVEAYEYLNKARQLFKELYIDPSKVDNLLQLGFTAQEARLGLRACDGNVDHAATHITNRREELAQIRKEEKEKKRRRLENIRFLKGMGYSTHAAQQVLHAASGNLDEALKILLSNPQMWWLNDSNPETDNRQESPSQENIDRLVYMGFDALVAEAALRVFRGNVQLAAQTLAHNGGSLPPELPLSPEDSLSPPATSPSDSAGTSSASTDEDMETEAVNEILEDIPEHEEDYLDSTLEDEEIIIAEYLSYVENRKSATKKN

T2: GST-RAD23, P54727
T2 chain: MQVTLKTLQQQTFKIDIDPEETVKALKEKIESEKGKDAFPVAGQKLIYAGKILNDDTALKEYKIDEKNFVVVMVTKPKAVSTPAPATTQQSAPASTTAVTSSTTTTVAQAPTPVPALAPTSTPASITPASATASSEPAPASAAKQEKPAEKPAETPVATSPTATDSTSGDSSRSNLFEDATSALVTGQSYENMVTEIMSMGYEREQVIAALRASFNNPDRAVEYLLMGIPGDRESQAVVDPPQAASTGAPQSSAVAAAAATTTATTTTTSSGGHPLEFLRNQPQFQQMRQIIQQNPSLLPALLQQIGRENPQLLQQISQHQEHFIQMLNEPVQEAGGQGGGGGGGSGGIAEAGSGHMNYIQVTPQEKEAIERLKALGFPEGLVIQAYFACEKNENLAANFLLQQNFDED


Columns and labels:
[1] = target: T1, GST-NUB1L, Q9Y5A7-1; assay: Octet (BLI); details: chain shown with the change; GST-NUB1L on the sensor; His6-RPN1 variant in solution; parent: est. 0.58; read off a plot
[2] = target: T2, GST-RAD23, P54727; assay: Octet (BLI); details: chain shown with the change; GST-RAD23 on the sensor; GST control curve in the same panel reaches est. 0.13 nm; read off a plot

Row | response [1] | response [2] | Binder
1 | 0.28 nm | 0.25 nm | His6-RPN1 WT, Q13200 T2 (protein) MEEGGRDKAPVQPQQSPAAAPGGTDEKPSGKERRDAGDKDKEQELSEEDKQLQDELEMLVERLGEKDTSLYRPALEELRRQIRSSTTSMTSVPKPLKFLRPHYGKLKEIYENMAPGENKRFAADIISVLAMTMSGERECLKYRLVGSQEELASWGHEYVRHLAGEVAKEWQELDDAEKVQREPLLTLVKEIVPYNMAHNAEHEACDLLMEIEQVDMLEKDIDENAYAKVCLYLTSCVNYVPEPENSALLRCALGVFRKFSRFPEALRLALMLNDMELVEDIFTSCKDVVVQKQMAFMLGRHGVFLELSEDVEEYEDLTEIMSNVQLNSNFLALARELDIMEPKVPDDIYKTHLENNRFGGSGSQVDSARMNLASSFVNGFVNAAFGQDKLLTDDGNKWLYKNKDHGMLSAAASLGMILLWDAKGGLAAIDKYLYSSEDYIKSGALLACGIVNSGVRNECDPALALLSDYVLHNSNTMRLGSIFGLGLAYAGSNREDVLTLLLPVMGDSKSSMEVAGVTALACGMIAVGSCNGDVTSTILQTIMEKSETELKDTYARWLPLGLGLNHLGKGEAIEAILAALEVVSEPFRSFANTLVDVCAYAGSGNVLKVQQLLHICSEHFDSKEKEEDKDKKEKKDKDKKEAPADMGAHQGVAVLGIALIAMGEEIGAEMALRTFGHLLRYGEPTLRRAVPLALALISVSNPRLNILDTLSKFSHDADPEVSYNSIFAMGMVGSGTNNARLAAMLRQLAQYHAKDPNNLFMVRLAQGLTHLGKGTLTLCPYHSDRQLMSQVAVAGLLTVLVSFLDVRNIILGKSHYVLYGLVAAMQPRMLVTFDEELRPLPVSVRVGQAVDVVGQAGKPKTITGFQTHTTPVLLAHGERAELATEEFLPVTPILEGFVILRKNPNYDL
2 | 0.18 nm |  | His6-RPN1 WT, Q13200 T1; T2 (protein) MEEGGRDKAPVQPQQSPAAAPGGTDEKPSGKERRDAGDKDKEQELSEEDKQLQDELEMLVERLGEKDTSLYRPALEELRRQIRSSTTSMTSVPKPLKFLRPHYGKLKEIYENMAPGENKRFAADIISVLAMTMSGERECLKYRLVGSQEELASWGHEYVRHLAGEVAKEWQELDDAEKVQREPLLTLVKEIVPYNMAHNAEHEACDLLMEIEQVDMLEKDIDENAYAKVCLYLTSCVNYVPEPENSALLRCALGVFRKFSRFPEALRLALMLNDMELVEDIFTSCKDVVVQKQMAFMLGRHGVFLELSEDVEEYEDLTEIMSNVQLNSNFLALARELDIMEPKVPDDIYKTHLENNRFGGSGSQVDSARMNLASSFVNGFVNAAFGQDKLLTDDGNKWLYKNKDHGMLSAAASLGMILLWDAKGGLAAIDKYLYSSEDYIKSGALLACGIVNSGVRNECDPALALLSDYVLHNSNTMRLGSIFGLGLAYAGSNREDVLTLLLPVMGDSKSSMEVAGVTALACGMIAVGSCNGAVTSTILRTIMRKSETELKDTYARWLPLGLGLNHLGKGEAIEAILAALEVVSEPFRSFANTLVDVCAYAGSGNVLKVQQLLHICSEHFDSKEKEEDKDKKEKKDKDKKEAPADMGAHQGVAVLGIALIAMGEEIGAEMALRTFGHLLRYGEPTLRRAVPLALALISVSNPRLNILDTLSKFSHDADPEVSYNSIFAMGMVGSGTNNARLAAMLRQLAQYHAKDPNNLFMVRLAQGLTHLGKGTLTLCPYHSDRQLMSQVAVAGLLTVLVSFLDVRNIILGKSHYVLYGLVAAMQPRMLVTFDEELRPLPVSVRVGQAVDVVGQAGKPKTITGFQTHTTPVLLAHGERAELATEEFLPVTPILEGFVILRKNPNYDL

Source: PMC10185811
